Article PMC9482650, “Quantitative fragmentomics allow affinity mapping of interactomes” (Nature Communications, 2022)

Key:
Experiment in all cases: holdup assay
Parameters in all cases: key: below the threshold = too weak to quantify, mostly under pKd 3.1 to 4
APBA1_1, Q02410 = target: T1, APBA1_1, Q02410
T1 sequence (Q02410 651-752, limits assumed, looked up): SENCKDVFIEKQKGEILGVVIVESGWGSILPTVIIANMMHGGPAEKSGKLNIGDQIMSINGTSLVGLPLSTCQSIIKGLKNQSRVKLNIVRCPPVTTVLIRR

ARHGEF11, O15085 = target: T2, ARHGEF11, O15085
T2 sequence (O15085 42-136, limits assumed, looked up): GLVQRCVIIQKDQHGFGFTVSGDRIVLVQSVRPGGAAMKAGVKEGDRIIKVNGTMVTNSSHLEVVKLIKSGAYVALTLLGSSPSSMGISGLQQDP

ARHGEF12, Q9NZN5-2 = target: ARHGEF12, Q9NZN5-2
DLG5_1, Q8TDM6 = target: DLG5_1, Q8TDM6
FRMPD3, Q5JV73 = target: FRMPD3, Q5JV73
GRID2IP_2, A4D2P6 = target: GRID2IP_2, A4D2P6
GRIP1_2, Q9Y3R0 = target: T3, GRIP1_2, Q9Y3R0
T3 sequence (Q9Y3R0 145-248, limits assumed, looked up): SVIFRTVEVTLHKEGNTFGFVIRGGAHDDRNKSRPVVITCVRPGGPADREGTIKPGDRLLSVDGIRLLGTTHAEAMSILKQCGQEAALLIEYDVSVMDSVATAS

HTRA1, Q92743 = target: HTRA1, Q92743
IL16_1, Q14005 = target: IL16_1, Q14005
IL16_3, Q14005 = target: IL16_3, Q14005
Inadl_3, Q8NI35 = target: Inadl_3, Q8NI35
Inadl_5, Q8NI35 = target: Inadl_5, Q8NI35
LNX1_2, Q8TBB1 = target: LNX1_2, Q8TBB1
MAGI2_2, Q86UL8 = target: MAGI2_2, Q86UL8
MAGI3_2, Q5TCQ9 = target: MAGI3_2, Q5TCQ9
MAST1, Q9Y2H9 = target: MAST1, Q9Y2H9
MPP7, Q5T2T1 = target: T4, MPP7, Q5T2T1
T4 sequence (Q5T2T1 134-230, limits assumed, looked up): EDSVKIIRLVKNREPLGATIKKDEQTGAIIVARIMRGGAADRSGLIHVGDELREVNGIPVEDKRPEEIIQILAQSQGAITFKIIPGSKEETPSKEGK

NHERF3_3, Q5T2W1 = target: T5, NHERF3_3, Q5T2W1
T5 sequence (Q5T2W1 238-333, limits assumed, looked up): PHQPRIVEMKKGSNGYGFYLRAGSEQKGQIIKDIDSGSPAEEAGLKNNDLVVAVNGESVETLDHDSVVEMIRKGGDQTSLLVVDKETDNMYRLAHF

PDLIM1, O00151 = target: PDLIM1, O00151
PDZRN3_1, Q9UPQ7 = target: T6, PDZRN3_1, Q9UPQ7
T6 sequence (Q9UPQ7 244-349, limits assumed, looked up): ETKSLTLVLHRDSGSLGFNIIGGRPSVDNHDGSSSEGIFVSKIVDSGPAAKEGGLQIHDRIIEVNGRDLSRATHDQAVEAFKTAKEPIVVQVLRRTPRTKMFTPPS

PTPN3, P26045 = target: PTPN3, P26045
RADIL, Q96JH8 = target: T7, RADIL, Q96JH8
T7 sequence (Q96JH8 971-1071, limits assumed, looked up): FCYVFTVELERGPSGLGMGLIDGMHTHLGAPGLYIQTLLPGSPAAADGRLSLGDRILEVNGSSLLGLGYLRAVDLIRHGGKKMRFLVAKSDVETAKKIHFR

RAPGEF6, Q8TEU7 = target: T8, RAPGEF6, Q8TEU7
T8 sequence (Q8TEU7 525-625, limits assumed, looked up): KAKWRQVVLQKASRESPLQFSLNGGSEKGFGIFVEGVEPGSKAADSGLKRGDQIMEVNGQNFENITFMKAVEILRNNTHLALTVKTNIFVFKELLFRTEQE

RHPN1, Q8TCX5 = target: T9, RHPN1, Q8TCX5
T9 sequence (Q8TCX5 508-602, limits assumed, looked up): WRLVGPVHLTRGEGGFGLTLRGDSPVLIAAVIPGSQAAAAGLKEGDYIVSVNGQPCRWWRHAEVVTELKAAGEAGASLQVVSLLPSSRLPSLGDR

SNTA1, Q13424 = target: T10, SNTA1, Q13424
T10 sequence (Q13424 82-180, limits assumed, looked up): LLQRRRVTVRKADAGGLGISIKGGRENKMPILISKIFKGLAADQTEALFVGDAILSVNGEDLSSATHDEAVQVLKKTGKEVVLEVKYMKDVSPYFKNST

SNTG2, Q9NY99 = target: T11, SNTG2, Q9NY99
T11 sequence (Q9NY99 68-166, limits assumed, looked up): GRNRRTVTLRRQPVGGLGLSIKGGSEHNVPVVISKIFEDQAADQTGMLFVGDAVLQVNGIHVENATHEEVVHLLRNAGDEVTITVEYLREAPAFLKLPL

TJP1_3, Q07157 = target: TJP1_3, Q07157
[1] = plain residues with an end cap or a label only (N-terminal biotin on a linker: ttds)
[2] = plain residues with an end cap or a label only (N-terminal biotin on a linker: gsgsgs; C-terminal amide)

Chain of MAGI2_2, Q86UL8 (Q86UL8 410-522): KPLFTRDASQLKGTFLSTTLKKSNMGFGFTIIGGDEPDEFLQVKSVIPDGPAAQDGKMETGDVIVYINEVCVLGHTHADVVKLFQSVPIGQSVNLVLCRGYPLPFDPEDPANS
Chain of DLG5_1, Q8TDM6 (Q8TDM6 617-713): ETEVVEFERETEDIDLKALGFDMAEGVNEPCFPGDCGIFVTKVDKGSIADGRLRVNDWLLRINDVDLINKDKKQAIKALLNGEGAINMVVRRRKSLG
Chain of IL16_1, Q14005 (Q14005 210-306): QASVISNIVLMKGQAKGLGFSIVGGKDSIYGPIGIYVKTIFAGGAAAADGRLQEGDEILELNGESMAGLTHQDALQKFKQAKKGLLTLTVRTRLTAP
Chain of ARHGEF12, Q9NZN5-2 (Q9NZN5 other isoform, or with tags, fused parts or gaps): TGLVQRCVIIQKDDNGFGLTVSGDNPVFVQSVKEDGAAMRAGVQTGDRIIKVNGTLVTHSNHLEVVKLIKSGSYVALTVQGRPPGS
Chain of MAST1, Q9Y2H9 (Q9Y2H9 962-1065): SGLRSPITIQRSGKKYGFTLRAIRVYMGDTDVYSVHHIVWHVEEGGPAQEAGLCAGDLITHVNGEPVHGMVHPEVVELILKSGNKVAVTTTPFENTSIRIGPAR
Chain of PTPN3, P26045 (P26045 505-587): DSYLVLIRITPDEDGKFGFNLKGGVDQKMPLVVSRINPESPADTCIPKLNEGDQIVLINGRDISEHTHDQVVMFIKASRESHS
Chain of MAGI3_2, Q5TCQ9 (Q5TCQ9 398-503): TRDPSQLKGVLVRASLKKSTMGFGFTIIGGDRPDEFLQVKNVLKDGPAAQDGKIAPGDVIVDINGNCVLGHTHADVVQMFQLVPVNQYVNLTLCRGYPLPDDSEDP
Chain of TJP1_3, Q07157 (Q07157 416-512): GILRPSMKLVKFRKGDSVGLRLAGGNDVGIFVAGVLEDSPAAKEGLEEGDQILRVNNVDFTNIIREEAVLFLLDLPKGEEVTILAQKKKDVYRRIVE
Chain of HTRA1, Q92743 (Q92743 360-477): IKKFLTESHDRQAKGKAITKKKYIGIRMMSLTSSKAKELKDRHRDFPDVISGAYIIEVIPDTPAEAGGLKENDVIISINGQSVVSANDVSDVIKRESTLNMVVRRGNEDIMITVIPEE
Chain of Inadl_3, Q8NI35 (Q8NI35 359-469): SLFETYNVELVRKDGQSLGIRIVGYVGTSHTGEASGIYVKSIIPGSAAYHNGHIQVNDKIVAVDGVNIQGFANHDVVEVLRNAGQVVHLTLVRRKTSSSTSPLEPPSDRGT
Chain of Inadl_5, Q8NI35 (Q8NI35 673-780): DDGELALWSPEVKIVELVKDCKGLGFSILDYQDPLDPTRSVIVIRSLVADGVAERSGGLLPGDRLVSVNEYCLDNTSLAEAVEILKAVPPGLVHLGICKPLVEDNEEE
Chain of IL16_3, Q14005 (Q14005 1107-1207): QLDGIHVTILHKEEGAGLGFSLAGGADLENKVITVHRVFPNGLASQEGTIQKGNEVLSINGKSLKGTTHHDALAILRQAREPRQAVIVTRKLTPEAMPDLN
Chain of GRID2IP_2, A4D2P6 (A4D2P6 272-370): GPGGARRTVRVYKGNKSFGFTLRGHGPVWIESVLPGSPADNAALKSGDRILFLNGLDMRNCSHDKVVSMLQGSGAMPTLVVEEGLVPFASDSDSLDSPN
Chain of PDLIM1, O00151 (O00151 1-87): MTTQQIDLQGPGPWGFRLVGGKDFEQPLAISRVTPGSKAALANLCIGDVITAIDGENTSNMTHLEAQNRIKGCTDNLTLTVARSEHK
Chain of FRMPD3, Q5JV73 (Q5JV73 12-100): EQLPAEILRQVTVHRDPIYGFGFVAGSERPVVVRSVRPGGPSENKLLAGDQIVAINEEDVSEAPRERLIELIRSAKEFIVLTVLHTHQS
Chain of LNX1_2, Q8TBB1 (Q8TBB1 371-470): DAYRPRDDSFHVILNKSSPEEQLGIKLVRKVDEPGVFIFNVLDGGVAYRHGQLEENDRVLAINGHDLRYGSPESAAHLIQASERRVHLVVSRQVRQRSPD

B1: ACVR2A, P27037 (peptide)
chain: VDFPPKESSL
With B1 the pKd (APBA1_1, Q02410; [1]) was “below the threshold”, the pKd (ARHGEF11, O15085; [1]) was 4.17 and the pKd (ARHGEF12, Q9NZN5-2; [1]) was 4.2. For the same binder, the pKd (DLG5_1, Q8TDM6; [1]) was “below the threshold”, the pKd (FRMPD3, Q5JV73; [1]) was “below the threshold” and the pKd (GRID2IP_2, A4D2P6; [1]) was 3.48. For the same binder, the pKd (GRIP1_2, Q9Y3R0; [1]) was “below the threshold”, the pKd (HTRA1, Q92743; [1]) was “below the threshold” and the pKd (IL16_1, Q14005; [1]) was “below the threshold”. The pKd (IL16_3, Q14005; [1]) was “below the threshold”, the pKd (Inadl_3, Q8NI35; [1]) was “below the threshold” and the pKd (Inadl_5, Q8NI35; [1]) was “below the threshold”. The pKd (LNX1_2, Q8TBB1; [1]) was “below the threshold”, the pKd (MAGI2_2, Q86UL8; [1]) was 3.78 and the pKd (MAGI3_2, Q5TCQ9; [1]) was 3.3. For the same binder, the pKd (MAST1, Q9Y2H9; [1]) was 4.77, the pKd (MPP7, Q5T2T1; [1]) was “below the threshold” and the pKd (NHERF3_3, Q5T2W1; [1]) was “below the threshold”. It also gave a pKd (PDLIM1, O00151; [1]) of 3.24, a pKd (PDZRN3_1, Q9UPQ7; [1]) of 4.76 and a pKd (PTPN3, P26045; [1]) of 4.87. For the same binder, the pKd (RADIL, Q96JH8; [1]) was “below the threshold”, the pKd (RAPGEF6, Q8TEU7; [1]) was “below the threshold” and the pKd (RHPN1, Q8TCX5; [1]) was 3.97. For the same binder, the pKd (SNTA1, Q13424; [1]) was 4.28, the pKd (SNTG2, Q9NY99; [1]) was 4.11 and the pKd (TJP1_3, Q07157; [1]) was “below the threshold”.

B2: SLC2A1, P11166 (peptide)
chain: FHPLGADSQV
B2 was tested, and the pKd (APBA1_1, Q02410; [1]) was “below the threshold”, the pKd (ARHGEF11, O15085; [1]) was “below the threshold” and the pKd (ARHGEF12, Q9NZN5-2; [1]) was “below the threshold”. The pKd (DLG5_1, Q8TDM6; [1]) was “below the threshold”, the pKd (FRMPD3, Q5JV73; [1]) was “below the threshold” and the pKd (GRID2IP_2, A4D2P6; [1]) was “below the threshold”. The pKd (GRIP1_2, Q9Y3R0; [1]) was “below the threshold”, the pKd (HTRA1, Q92743; [1]) was “below the threshold” and the pKd (IL16_1, Q14005; [1]) was 3.51. For the same binder, the pKd (IL16_3, Q14005; [1]) was “below the threshold”, the pKd (Inadl_3, Q8NI35; [1]) was “below the threshold” and the pKd (Inadl_5, Q8NI35; [1]) was “below the threshold”. For the same binder, the pKd (LNX1_2, Q8TBB1; [1]) was “below the threshold”, the pKd (MAGI2_2, Q86UL8; [1]) was “below the threshold” and the pKd (MAGI3_2, Q5TCQ9; [1]) was “below the threshold”. The pKd (MAST1, Q9Y2H9; [1]) was “below the threshold”, the pKd (MPP7, Q5T2T1; [1]) was “below the threshold” and the pKd (NHERF3_3, Q5T2W1; [1]) was “below the threshold”. For the same binder, the pKd (PDLIM1, O00151; [1]) was “below the threshold”, the pKd (PDZRN3_1, Q9UPQ7; [1]) was 3.53 and the pKd (PTPN3, P26045; [1]) was 4.1. The pKd (RADIL, Q96JH8; [1]) was “below the threshold”, the pKd (RAPGEF6, Q8TEU7; [1]) was “below the threshold” and the pKd (RHPN1, Q8TCX5; [1]) was 4.29. The pKd (SNTA1, Q13424; [1]) was “below the threshold”, the pKd (SNTG2, Q9NY99; [1]) was “below the threshold” and the pKd (TJP1_3, Q07157; [1]) was “below the threshold”.

B3: MLLT4_int, P55196 (peptide)
chain: YGIVQETTFDLGGDIH
In the case of B3, the pKd (APBA1_1, Q02410; [2]) is reported as “below the threshold”, the pKd (ARHGEF11, O15085; [2]) is reported as “below the threshold” and the pKd (ARHGEF12, Q9NZN5-2; [2]) is reported as “below the threshold”. The pKd (DLG5_1, Q8TDM6; [2]) was “below the threshold”, the pKd (FRMPD3, Q5JV73; [2]) was “below the threshold” and the pKd (GRID2IP_2, A4D2P6; [2]) was “below the threshold”. For the same binder, the pKd (GRIP1_2, Q9Y3R0; [2]) was “below the threshold”, the pKd (HTRA1, Q92743; [2]) was “below the threshold” and the pKd (IL16_1, Q14005; [2]) was “below the threshold”. The pKd (IL16_3, Q14005; [2]) was “below the threshold”, the pKd (Inadl_3, Q8NI35; [2]) was “below the threshold” and the pKd (Inadl_5, Q8NI35; [2]) was “below the threshold”. The pKd (LNX1_2, Q8TBB1; [2]) was “below the threshold”, the pKd (MAGI2_2, Q86UL8; [2]) was “below the threshold” and the pKd (MAGI3_2, Q5TCQ9; [2]) was “below the threshold”. For the same binder, the pKd (MAST1, Q9Y2H9; [2]) was “below the threshold”, the pKd (MPP7, Q5T2T1; [2]) was “below the threshold” and the pKd (NHERF3_3, Q5T2W1; [2]) was “below the threshold”. For the same binder, the pKd (PDLIM1, O00151; [2]) was “below the threshold”, the pKd (PDZRN3_1, Q9UPQ7; [2]) was “below the threshold” and the pKd (PTPN3, P26045; [2]) was 3.88. The pKd (RADIL, Q96JH8; [2]) was “below the threshold”, the pKd (RAPGEF6, Q8TEU7; [2]) was “below the threshold” and the pKd (RHPN1, Q8TCX5; [2]) was “below the threshold”. The pKd (SNTA1, Q13424; [2]) was “below the threshold”, the pKd (SNTG2, Q9NY99; [2]) was “below the threshold” and the pKd (TJP1_3, Q07157; [2]) was “below the threshold”.
